Experimental data from patent US7988958B2, “Enterococcus and Streptococcus strains and bacteriocins” (The United States of America as represented by the …, priority 2005, dated 2011).

Tests used:
[1] = tested on: Campylobacter jejuni; experiment: Antagonistic activity of products purified by Methods A and B; format: cell-based; set-up: Specific Activity UE/ml: unit not given here
[2] = tested on: Y. enterolitica 04; experiment: MIC by spot test; format: cell-based, Y. enterocolitica

Row | Molecule | Activity UE/ml ([1]; isolated by Method A) | Specific Activity UE/ml ([1]; isolated by Method A) | Activity UE/ml ([1]; isolated by Method B) | Specific Activity UE/ml ([1]; isolated by Method B) | MICs [2] | MIC [2]
1 | Bacteriocin 50-52: bacteriocin produced by Enterococcus durans/faecium/hirae NRRL B-30746 (strain 50-52); amino acid sequence SEQ ID NO 1 (TTKNYGNGVCNSVNWCQCGNVWASCNLATGCAAWLCKLA; listed as Enterococcus faecium) | 6,400 UE/ml | 85,333 | 12,800 UE/ml | 320,000 | 0.1 µg/mL | –
2 | Bacteriocin 760: bacteriocin produced by Enterococcus durans/faecium/hirae NRRL B-30745 (strain 760); amino acid sequence SEQ ID NO 2 (protein, listed as Streptococcus cricetus) NRWYCNSAAGGVGGAAVCGLAGYVGEAKENIAGEVRKGWGMAGGFTHNKACKSFPGSGWASG | 12,800 UE/ml | 71,111 | 51,200 UE/ml | 284,444 | – | 100 µg/mL
